Read-outs that look alike come from different tables or passages of the source.
T1: Cbf5p;Nop10p;Gar1p (Saccharomyces cerevisiae;Saccharomyces …, UniProt P33322;Q6Q547;P28007 1-483;1-58;1-205, ||)
T1 sequence 1: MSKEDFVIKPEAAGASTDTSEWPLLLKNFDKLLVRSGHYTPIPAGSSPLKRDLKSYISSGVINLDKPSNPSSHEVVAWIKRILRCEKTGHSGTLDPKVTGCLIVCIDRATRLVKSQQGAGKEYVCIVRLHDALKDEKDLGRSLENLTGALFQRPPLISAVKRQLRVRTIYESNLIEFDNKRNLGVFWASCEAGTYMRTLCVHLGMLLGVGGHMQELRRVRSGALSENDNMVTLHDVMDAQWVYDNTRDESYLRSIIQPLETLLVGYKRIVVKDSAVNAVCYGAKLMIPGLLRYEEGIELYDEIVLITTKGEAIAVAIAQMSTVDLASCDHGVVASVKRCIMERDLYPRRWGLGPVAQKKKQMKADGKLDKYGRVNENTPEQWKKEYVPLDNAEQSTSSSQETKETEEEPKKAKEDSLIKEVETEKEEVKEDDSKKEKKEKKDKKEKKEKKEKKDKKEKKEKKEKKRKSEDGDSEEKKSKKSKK
T1 sequence 2: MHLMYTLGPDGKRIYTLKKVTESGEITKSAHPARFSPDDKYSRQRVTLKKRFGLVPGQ
T1 sequence 3: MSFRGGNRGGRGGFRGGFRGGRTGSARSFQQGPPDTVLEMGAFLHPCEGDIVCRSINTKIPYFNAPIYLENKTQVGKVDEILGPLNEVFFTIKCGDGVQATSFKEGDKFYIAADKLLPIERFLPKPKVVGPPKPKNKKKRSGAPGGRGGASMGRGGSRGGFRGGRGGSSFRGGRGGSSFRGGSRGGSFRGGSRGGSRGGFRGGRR

T2: Cbf5p;Nop10p;Gar1p;Nhp2p (Saccharomyces cerevisiae;Saccharomyces …, UniProt P33322;Q6Q547;P28007;P32495 1-483;1-58;1-205;1-156, |||)
T2 sequence 1: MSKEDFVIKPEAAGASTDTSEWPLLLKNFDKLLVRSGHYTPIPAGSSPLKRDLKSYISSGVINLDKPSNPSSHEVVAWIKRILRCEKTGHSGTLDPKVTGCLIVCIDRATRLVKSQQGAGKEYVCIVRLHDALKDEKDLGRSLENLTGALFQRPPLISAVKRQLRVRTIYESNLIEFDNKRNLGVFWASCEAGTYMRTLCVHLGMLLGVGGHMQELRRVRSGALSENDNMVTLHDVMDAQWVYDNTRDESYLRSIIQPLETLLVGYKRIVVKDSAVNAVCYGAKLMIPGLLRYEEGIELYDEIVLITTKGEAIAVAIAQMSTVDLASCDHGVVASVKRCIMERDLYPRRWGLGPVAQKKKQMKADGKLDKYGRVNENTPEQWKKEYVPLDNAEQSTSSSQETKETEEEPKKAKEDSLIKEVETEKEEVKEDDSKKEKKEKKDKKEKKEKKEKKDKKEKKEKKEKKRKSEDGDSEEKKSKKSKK
T2 sequence 2: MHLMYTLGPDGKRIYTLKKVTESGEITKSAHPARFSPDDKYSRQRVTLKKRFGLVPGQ
T2 sequence 3: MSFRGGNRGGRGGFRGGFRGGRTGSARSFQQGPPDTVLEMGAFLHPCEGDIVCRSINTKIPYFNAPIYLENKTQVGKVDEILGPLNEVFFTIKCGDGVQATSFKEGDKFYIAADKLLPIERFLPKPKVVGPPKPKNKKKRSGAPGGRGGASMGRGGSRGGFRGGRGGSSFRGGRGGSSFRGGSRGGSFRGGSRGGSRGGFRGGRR
T2 sequence 4: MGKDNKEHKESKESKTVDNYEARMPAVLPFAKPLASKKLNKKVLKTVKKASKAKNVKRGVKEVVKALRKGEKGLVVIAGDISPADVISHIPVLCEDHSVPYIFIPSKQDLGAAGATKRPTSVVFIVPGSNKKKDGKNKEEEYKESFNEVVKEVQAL


Key:
Test in all cases: filter binding
Cbf5p;Nop10p;Gar1p = target: T1, Cbf5p;Nop10p;Gar1p
Cbf5p;Nop10p;Gar1p;Nhp2p [1] = target: T2, Cbf5p;Nop10p;Gar1p;Nhp2p
Cbf5p;Nop10p;Gar1p;Nhp2p [2] = target: T2, Cbf5p;Nop10p;Gar1p;Nhp2p; remark: listed apart in the source
Cbf5p;Nop10p;Gar1p;Nhp2p [3] = target: T2, Cbf5p;Nop10p;Gar1p;Nhp2p; remark: listed apart in the source

| Binder | Kd (Cbf5p;Nop10p;Gar1p) [nM] | Kd (Cbf5p;Nop10p;Gar1p;Nhp2p [1]) [nM] | also measured |
| --- | --- | --- | --- |
| GGGACGUCGGCUCUUCCUAUCAUACC (mixed) [snR34 guide + 3' substrate RNA] | 90 ± 20 | – | – |
| GGGACGUCGGCUCUUCCUAUCAUACC (mixed) [snR34 delta Box ACA guide + 3' substrate RNA] | – | 150 ± 30 | – |
| snR34 5' HP extended stem (structured_RNA) RNA: GGGAAUCAAAAAUUUAUUUUUUACACGGAAACGAUGCCACAGUUGACUGAACCUGUCUUCUAACAGUAGUUAAUUGCCAGUAUUUCCGUGUAAACAAGA | – | – | Kd (Cbf5p;Nop10p;Gar1p;Nhp2p [2]): 1.3 ± 0.5 nM |
| GGGGACAACUGGCUUGUGGCAGCCA (mixed) [snR34 guide + 5' substrate RNA] | 50 ± 20 | – | Kd (Cbf5p;Nop10p;Gar1p;Nhp2p [3]): 53 ± 22 nM |
| GGGACGUCGGCUCUUCCUAUCAUACC (mixed) [snR34 delta Box H guide + 3' substrate RNA] | – | 90 ± 30 | – |
